Ends that are not written are not given here.
What was measured:
Experiment in all cases: peptide microarray
ApoC3 peptide … S49Q = target: T1, ApoC3 peptide … S49Q (human, cyclic constrained)
T1 peptide: ARGWVTDGFSQLK
How it was run: (§1)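 Peptide microarrays of ApoC3-derived peptides incubated with antibody samples, then stained with goat anti-human IgG (Fc) DyLight680 (1:5000) and anti-HA DyLight800 (1:2000) control. Read-out by fluorescence scanning at intensities 7/7 (red/green); a secondary-only pre-stain checked background, HA frame peptides served as quality control.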

ApoC3 peptide … W42C = target: T2, ApoC3 peptide … W42C (human, not fully specified (bridges); also: cyclic constrained)
T2 peptide: ARGCVTDGFSSLK
How it was run: as §1

ApoC3 peptide … T44H = target: T3, ApoC3 peptide … T44H (human, not fully specified (bridges); also: cyclic constrained)
T3 peptide: ARGWVHDGFSSLK
How it was run: as §1

ApoC3 peptide … G41F = target: T4, ApoC3 peptide … G41F (human, also: cyclic constrained)
T4 peptide: ARFWVTDGFSSLK
How it was run: as §1

ApoC3 peptide … G46E = target: T5, ApoC3 peptide … G46E (human, not fully specified (bridges); also: cyclic constrained)
T5 peptide: ARGWVTDEFSSLK
How it was run: as §1

ApoC3 peptide … W42V = target: T6, ApoC3 peptide … W42V (human, not fully specified (bridges); also: cyclic constrained)
T6 peptide: ARGVVTDGFSSLK
How it was run: as §1

ApoC3 peptide … T44E = target: T7, ApoC3 peptide … T44E (human, not fully specified (bridges); also: cyclic constrained)
T7 peptide: ARGWVEDGFSSLK
How it was run: as §1

ApoC3 peptide … L50D = target: T8, ApoC3 peptide … L50D (human, not fully specified; cyclic constrained)
T8 peptide: ARGWVTDGFSSDK
How it was run: as §1

ApoC3 peptide … A39K = target: T9, ApoC3 peptide … A39K (human, cyclic constrained)
T9 peptide: KRGWVTDGFSSLK
How it was run: as §1

ApoC3 peptide … K51S = target: T10, ApoC3 peptide … K51S (human, not fully specified; cyclic constrained)
T10 peptide: ARGWVTDGFSSLS
How it was run: as §1

ApoC3 peptide … D45G = target: T11, ApoC3 peptide … D45G (human, not fully specified (bridges); also: cyclic constrained)
T11 peptide: ARGWVTGGFSSLK
How it was run: as §1

ApoC3 peptide … K51A = target: T12, ApoC3 peptide … K51A (human, thioether (positions not given here); also: cyclic constrained)
T12 peptide: ARGWVTDGFSSLA
How it was run: as §1

ApoC3 peptide … A39P = target: T13, ApoC3 peptide … A39P (human, cyclic constrained)
T13 peptide: PRGWVTDGFSSLK
How it was run: as §1

ApoC3 peptide … G41H = target: T14, ApoC3 peptide … G41H (human, also: cyclic constrained)
T14 peptide: ARHWVTDGFSSLK
How it was run: as §1

ApoC3 peptide … V43C = target: T15, ApoC3 peptide … V43C (human, not fully specified; cyclic constrained)
T15 peptide: ARGWCTDGFSSLK
How it was run: as §1

ApoC3 peptide … V43R = target: T16, ApoC3 peptide … V43R (human, not fully specified (bridges); also: cyclic constrained)
T16 peptide: ARGWRTDGFSSLK
How it was run: as §1

ApoC3 peptide … T44D = target: T17, ApoC3 peptide … T44D (human, not fully specified (bridges); also: cyclic constrained)
T17 peptide: ARGWVDDGFSSLK
How it was run: as §1

ApoC3 peptide … V43S = target: T18, ApoC3 peptide … V43S (human, not fully specified (bridges); also: cyclic constrained)
T18 peptide: ARGWSTDGFSSLK
How it was run: as §1

ApoC3 peptide … W42P = target: T19, ApoC3 peptide … W42P (human, not fully specified (bridges); also: cyclic constrained)
T19 peptide: ARGPVTDGFSSLK
How it was run: as §1

ApoC3 peptide … R40S = target: T20, ApoC3 peptide … R40S (human, not fully specified (bridges); also: cyclic constrained)
T20 peptide: ASGWVTDGFSSLK
How it was run: as §1

ApoC3 peptide … D45P = target: T21, ApoC3 peptide … D45P (human, cyclic constrained)
T21 peptide: ARGWVTPGFSSLK
How it was run: as §1

ApoC3 peptide … S48A = target: T22, ApoC3 peptide … S48A (human, thioether (positions not given here); also: cyclic constrained)
T22 peptide: ARGWVTDGFASLK
How it was run: as §1

ApoC3 peptide … A39E = target: T23, ApoC3 peptide … A39E (human, cyclic constrained)
T23 peptide: ERGWVTDGFSSLK
How it was run: as §1

ApoC3 peptide … G46L = target: T24, ApoC3 peptide … G46L (human, not fully specified (bridges); also: cyclic constrained)
T24 peptide: ARGWVTDLFSSLK
How it was run: as §1

ApoC3 peptide … A39S = target: T25, ApoC3 peptide … A39S (human, not fully specified (bridges); also: cyclic constrained)
T25 peptide: SRGWVTDGFSSLK
How it was run: as §1

ApoC3 peptide … T44G = target: T26, ApoC3 peptide … T44G (human, not fully specified (bridges); also: cyclic constrained)
T26 peptide: ARGWVGDGFSSLK
How it was run: as §1

ApoC3 peptide … D45S = target: T27, ApoC3 peptide … D45S (human, cyclic constrained)
T27 peptide: ARGWVTSGFSSLK
How it was run: as §1

ApoC3 peptide … S48P = ApoC3 peptide … S48P (human, cyclic constrained)
How it was run: as §1

ApoC3 peptide … F47H = target: T28, ApoC3 peptide … F47H (human, not fully specified (bridges); also: cyclic constrained)
T28 peptide: ARGWVTDGHSSLK
How it was run: as §1

ApoC3 peptide … L50F = target: T29, ApoC3 peptide … L50F (human, not fully specified; cyclic constrained)
T29 peptide: ARGWVTDGFSSFK
How it was run: as §1

ApoC3 peptide … S49R = target: T30, ApoC3 peptide … S49R (human, not fully specified (bridges); also: cyclic constrained)
T30 peptide: ARGWVTDGFSRLK
How it was run: as §1

B1: anti-ApoC3 antibody 14C7 (antibody, V domains shown)
VH: QVQVQESGPGLVKPSQTLSLTCTVSGGSITTNSYYWSWIRQPPGKGLEWMGAIDYSGDTYYSPSLKSRTSISRDTSKNQFTLQLTSVTPEDTAVYYCVSRIPTGEYWGQGTQVTVSS
VL: QTVVTQEPSLSVSPGGTVTLTCGLNSGSVTSSNYPDWYQQTPGQAPRLLIYNTNSRHSGVPSRFSGSISGNKAALTITGAQPEDEADYYCALYMGSDSVVFGGGTHLTVL
notes: it was detected with goat anti-human IgG (Fc); also called mAb 14C7; llama antibody 14C7
Question: What does the source list for B1?
Answer: % of binding to wild-type peptide (ApoC3 peptide … S49Q): 0.33%; % of binding to wild-type peptide (ApoC3 peptide … W42C): 61.6%; % of binding to wild-type peptide (ApoC3 peptide … T44H): 0.92%; % of binding to wild-type peptide (ApoC3 peptide … G41F): 10.8%; % of binding to wild-type peptide (ApoC3 peptide … G46E): 0%; % of binding to wild-type peptide (ApoC3 peptide … W42V): 48.3%; % of binding to wild-type peptide (ApoC3 peptide … T44E): 0%; % of binding to wild-type peptide (ApoC3 peptide … L50D): 0%; % of binding to wild-type peptide (ApoC3 peptide … A39K): 72.9%; % of binding to wild-type peptide (ApoC3 peptide … K51S): 27.5%; % of binding to wild-type peptide (ApoC3 peptide … D45G): 2.16%; % of binding to wild-type peptide (ApoC3 peptide … K51A): 10.1%; % of binding to wild-type peptide (ApoC3 peptide … A39P): 166%; % of binding to wild-type peptide (ApoC3 peptide … G41H): 23.1%; % of binding to wild-type peptide (ApoC3 peptide … V43C): 0.12%; % of binding to wild-type peptide (ApoC3 peptide … V43R): 15.1%; % of binding to wild-type peptide (ApoC3 peptide … T44D): 0%; % of binding to wild-type peptide (ApoC3 peptide … V43S): 1.54%; % of binding to wild-type peptide (ApoC3 peptide … W42P): 18.6%; % of binding to wild-type peptide (ApoC3 peptide … R40S): 54.7%; % of binding to wild-type peptide (ApoC3 peptide … D45P): 0%; % of binding to wild-type peptide (ApoC3 peptide … S48A): 75.5%; % of binding to wild-type peptide (ApoC3 peptide … A39E): 98.9%; % of binding to wild-type peptide (ApoC3 peptide … G46L): 0%; % of binding to wild-type peptide (ApoC3 peptide … A39S): 81.4%; % of binding to wild-type peptide (ApoC3 peptide … T44G): 0%; % of binding to wild-type peptide (ApoC3 peptide … D45S): 20.8%; % of binding to wild-type peptide (ApoC3 peptide … S48P): 0.06%; % of binding to wild-type peptide (ApoC3 peptide … F47H): 0%; % of binding to wild-type peptide (ApoC3 peptide … L50F): 56.6%; % of binding to wild-type peptide (ApoC3 peptide … S49R): 0.74%

From US20190241648A1 (STATEN BIOTECHNOLOGY B V, published 2019)
